{
  "source": "patent US20170130205A1",
  "about": "“METHOD FOR PREPARING INDUCED PLURIPOTENT STEM CELLS” (TAIPEI VETERANS GENERAL HOSPITAL, priority 2014, published 2017)",
  "format_in_all_cases": "cell-based, human",
  "key": {"Ctrl-iPSC-CMs": {"test_system": "Ctrl-iPSC-CMs", "experiment": "MED64 multi-electrode field potential recording of beating iPSC-derived cardiomyocytes (control)", "settings": "post-induction day 60, isoproterenol 0, 1, 10 μM", "experimental": "(§1) The recording area of probes with 64 recording electrodes (MED probe; MED-P515A, Alpha Med Scientific, Osaka) for the MED64 System (Alpha Med Scientific) was coated with 2 ml of 0.1% gelatin that had been incubated at 37° C. for 1 hour. Beating iPSC-derived CMs were transferred onto the MED-probe dishes, and the electrical potentials were recorded with the MED64 multi-electrode array system. […] To evaluate the compounds, a cluster was treated with a compound in stepwise concentration increments. The medium was perfused at 1.7 ml/min at 37° C., and the field potentials were measured for 5 min."}, "FD-iPSC-CMs [1]": {"test_system": "FD-iPSC-CMs", "experiment": "MED64 multi-electrode field potential recording of beating iPSC-derived cardiomyocytes (Fabry)", "settings": "post-induction day 60", "experimental": "as §1"}, "ESC-CMs, Ctrl-iPSC-CMs": {"test_system": "ESC-CMs, Ctrl-iPSC-CMs", "experiment": "Alox12/Alox15 protein expression on Gb3 treatment (Western blot, immunofluorescence), control cells", "settings": "post-induction day 20, Gb3 15 μmole/L, 24 hours", "experimental": "(§2) The extraction of proteins from cells and western blot analysis were performed as described previously (Yang et al., Inhibition of cancer stem cell-like properties and reduced chemoradioresistance of glioblastoma using microrna145 with cationic polyurethane-short branch pei. Biomaterials. 2012; 33:1462-1476). Whole cell lysates were separated by electrophoresis on 12% SDS-PAGE and transferred to a polyvinylidene fluoride membrane. The membranes were blocked with 5% nonfat milk at room temperature for 1 hour. The blots were incubated with primary antibodies in TBST buffer containing 3% nonfat milk at 4° C. overnight and subsequently with secondary antibodies conjugated with peroxidase at 25° C. for 1 hour. The immunoblots were developed using an enhanced chemiluminescence system, and the luminescence was visualized on X-ray film.\n(§3) The living cells and spheres were fixed in 4% paraformaldehyde, permeabilized in 0.1% Triton X-100, and blocked in 5% normal goat serum in PBS. […] The total amount of retained autofluorescent material was determined in the red (546) and green (488) channels by quantifying the pixel area (Adobe Photoshop/Image J software). The cellular area contents of the normal iPSC-CMs and the FD-iPSC-CMs were quantified using the ImageJ software package (National Institutes of Health, Bethesda, MD)."}, "Ctrl-iPSC-CMs or ESC-CMs": {"test_system": "Ctrl-iPSC-CMs or ESC-CMs", "experiment": "ELISA of 12-HETE/15-HETE secretion into conditioned medium on Gb3 treatment, control cells", "settings": "Gb3 15 μmole/L, 24 hours"}, "FD-iPSC-CMs [2]": {"test_system": "FD-iPSC-CMs", "experiment": "Alox12/Alox15 protein expression on Gb3 treatment (Western blot, immunofluorescence), Fabry cells", "settings": "FD-iPSC-CMs (Pt1 to Pt8), post-induction day 20; Gb3 15 μmole/L, 24 hours; vs ESC-CMs and Ctrl-iPSC-CMs", "experimental": "as §2, §3"}, "FD-iPSC-CMs [3]": {"test_system": "FD-iPSC-CMs", "experiment": "ELISA of 12-HETE/15-HETE secretion into conditioned medium on Gb3 treatment, Fabry cells", "settings": "FD-iPSC-CMs (Pt1 to Pt8); Gb3 15 μmole/L, 24 hours"}, "[4]": {"test_system": "ESC-CMs, Ctrl-iPSC-CMs, FC-iPSC-CMs", "experiment": "GLA enzyme activity in cardiomyocytes with administration of GLA", "settings": "day 20 post-induction; GLA 5 μg/ml for 5 days; all experimental cells", "experimental": "Cells were washed twice with PBS, incubated in 200 μl of fresh medium at 37° C. and 5% CO2 for 2 hours, and washed twice with PBS. Afterward, the cells were lysed in 60 μl of Lysis Buffer (27 mM of sodium citrate, 46 mM of sodium phosphate dibasic, 0.5% Triton X-100, pH 4.6). Lysates (10 μl) were added to 50 μl of Assay Buffer (Lysis Buffer without Triton X-100) containing 6 mM of 4-MUG and 117 mM of N-acetyl-D-galactosamine (GalNac, an inhibitor of -N-acetylgalactosaminidase, which is a lysosomal enzyme present in cell lysates that hydrolyzes 4-MUG) and incubated at 37° C. for 1 hour. The Stop Solution (0.4 M glycine, pH 10.8; 70 μl) was added, and the fluorescence was read on a Victor plate reader (Perkin-Elmer, Waltham, Mass.) at 355 nm excitation and 460 nm emission. A Micro BCA Protein Assay Kit (Pierce, Rockford, Ill.) was used according to the manufacturer's instructions to determine the protein concentration from 40 μl of cell lysate from each well. The total protein amount in each well was used to normalize the enzyme activity. A 4-methylumbelliferone (4-MU) standard curve ranging from 1.3 nM to 30 μM was run in parallel to calculate the absolute -Gal A activity, expressed as nmol of 4-MU released/mg protein/hour (nmol/mg protein/hour), which was normalized to the percentage of the untreated wild-type (% WT) enzyme activity. […]"}, "FC-iPSC-CMs [5]": {"test_system": "FC-iPSC-CMs", "experiment": "Immunofluorescence of Alox12/15 and fibrotic markers in FC-iPSC-CMs under ERT", "settings": "read at day 60", "experimental": "(§4) The living cells and spheres were fixed in 4% paraformaldehyde, permeabilized in 0.1% Triton X-100, and blocked in 5% normal goat serum in PBS. After being washed three times with PBS, the cells were incubated with goat anti-mouse secondary antibodies conjugated with FITC (green) or PE (red). DAPI (blue) was used as the nuclear stain. Labeled cells were imaged with a laser-scanning confocal microscope (Olympus). The total amount of retained autofluorescent material was determined in the red (546) and green (488) channels by quantifying the pixel area (Adobe Photoshop/Image J software). The cellular area contents of the normal iPSC-CMs and the FD-iPSC-CMs were quantified using the ImageJ software package (National Institutes of Health, Bethesda, MD).\n(§5) However, the interrelationship between treatment onset and the efficacy of ERT drugs in FC with fibrotic progression remains unclear. Therefore, we compared the treatment efficacy of GLA between early (5 μg/ml of GLA from day 20 to day 60 post-differentiation; FIG. 13C) and late (5 μg/ml of GLA from day 40 to day 60 post-differentiation; FIG. 13D) administrations in FC-iPSC-CMs, and evaluated the levels of cardiac Alox12/15 and fibrotic markers at day 60 post-differentiation. […] We therefore tested the treatment efficacy of the pharmacological inhibition of cardiac Alox12/15 in combination with ERT (FIG. 15)."}, "FC-iPSC-CMs [6]": {"test_system": "FC-iPSC-CMs", "experiment": "Secreted levels of LysoGb3, 12(S)-HETE and 15(S)-HETE from FC-iPSC-CMs", "experimental": "For liquid chromatography for lysoGb3 and Gb3 analysis, we used Waters Alliance 2795XE HPLC system to perform stepwise gradient elution. The flow rate was 0.3 mL/min in lysoGb3 or Gb3 experiment. Mass spectrometry of lysoGb3 and Gb3 detection was performed in positive ion mode (ES+) on a triple quadruplemass spectrometer (Quattro Ultima, Waters, Milford, Mass.) with NeoLynx software version 4.1. The analyzing methods were modified from the protocol provided by Shire Human Genetic Therapies. LC-MS/MS analysis was performed using an LTQ Orbitrap (Thermo Fisher Scientific) as described previously.\nWhole blood samples were collected into 1.8 mg/ml EDTA-K3 tubes and centrifuged at 2500×g for 20 min at room temperature to obtain the plasma samples. The aliquots were stored at −80° C. until use. Enzyme-linked immunoassays (ELISAs) were used for 15(S) HETE (Cayman Chemicals) and 12(S) HETE (Detroit R&D) quantification according to the manufacturers' instructions (Detroit R&D).\nas §5"}, "FC-iPSC-CMs [7]": {"test_system": "FC-iPSC-CMs", "experiment": "Cell size of FC-iPSC-CMs by quantification of cTnT-positive margins", "settings": "early-administration: 5 μg/ml GLA day 20 to day 60", "experimental": "as §4, §5"}, "[8]": {"settings": "early-administration of GLA, day 60, vs untreated cells"}, "[9]": {"settings": "late-administration of GLA, day 60"}},
  "data": [
    {"molecule": "CC(C)NCC(O)c1ccc(O)c(O)c1", "note": "(stereo not shown) [Isoproterenol, isoproterenol]", "values": [
      {"measurement": "effect on beating frequency of contractile colonies", "setting": "Ctrl-iPSC-CMs", "result": "dose-dependent chronotropic effect"},
      {"measurement": "electrophysiological response (beating frequency) to the drug", "setting": "FD-iPSC-CMs [1]", "result": "random occurrences of arrhythmias"}
    ]},
    {"molecule": "globotriaosylceramide [Gb3]", "values": [
      {"measurement": "Alox12 and Alox15 protein expression", "setting": "ESC-CMs, Ctrl-iPSC-CMs", "result": "increased"},
      {"measurement": "secretion of 12-HETE/15-HETE", "setting": "Ctrl-iPSC-CMs or ESC-CMs", "result": "mildly increase"},
      {"measurement": "Alox12/Alox15 protein expression", "setting": "FD-iPSC-CMs [2]", "result": "upregulation of Alox12/Alox15 at higher magnitudes"},
      {"measurement": "secretion of 12-HETE and 15-HETE", "setting": "FD-iPSC-CMs [3]", "result": "largely stimulated"}
    ]},
    {"molecule": "α-galactosidase A (protein, UniProt P06280 32-429, looked up, enzyme used as enzyme replacement therapy (ERT) in the FC-iPSC-CM platform) Alpha-galactosidase A: LDNGLARTPTMGWLHWERFMCNLDCQEEPDSCISEKLFMEMAELMVSEGWKDAGYEYLCIDDCWMAPQRDSEGRLQADPQRFPHGIRQLANYVHSKGLKLGIYADVGNKTCAGFPGSFGYYDIDAQTFADWGVDLLKFDGCYCDSLENLADGYKHMSLALNRTGRSIVYSCEWPLYMWPFQKPNYTEIRQYCNHWRNFADIDDSWKSIKSILDWTSFNQERIVDVAGPGGWNDPDMLVIGNFGLSWNQQVTQMALWAIMAAPLFMSNDLRHISPQAKALLQDKDVIAINQDPLGKQGYQLRQGDNFEVWERPLSGLAWAVAMINRQEIGGPRSYTIAVASLGKGVACNPACFITQLLPVKRKLGFYEWTSRLRSHINPTGTVLLQLENTMQMSLKDLL", "values": [
      {"measurement": "GLA activity in cells", "setting": "[4]", "result": "elicited high GLA activity"},
      {"measurement": "expression levels of Alox12/15 and fibrotic biomarkers MMP1, TGF-β and collagen1", "setting": "FC-iPSC-CMs [5]; early-administration: 5 μg/ml GLA day 20 to day 60", "result": "suppressed"},
      {"measurement": "fibrotic protein expression", "setting": "FC-iPSC-CMs [5]; late-administration: 5 μg/ml GLA day 40 to day 60", "result": "negligible inhibitory effect"},
      {"measurement": "secreted level of 12-HETE", "setting": "FC-iPSC-CMs [6]; [8]", "result": "significantly suppressed"},
      {"measurement": "secreted level of 15-HETE", "setting": "FC-iPSC-CMs [6]; [8]", "result": "significantly suppressed"},
      {"measurement": "secreted level of lysoGb3", "setting": "FC-iPSC-CMs [6]; [8]", "result": "significantly suppressed"},
      {"measurement": "secreted level of lysoGb3", "setting": "FC-iPSC-CMs [6]; [9]", "result": "significant reduction"},
      {"measurement": "secretion of 12(S)-HETE", "setting": "FC-iPSC-CMs [6]; [9]", "result": "negligible inhibitory effect"},
      {"measurement": "secretion of 15(S)-HETE", "setting": "FC-iPSC-CMs [6]; [9]", "result": "negligible inhibitory effect"},
      {"measurement": "cell size of FC-iPSC-CMs", "setting": "FC-iPSC-CMs [7]", "result": "prominently reduced"}
    ]}
  ]
}
